Reference: US20100210511A1, “Combination VEGFR2 Therapy with Temozolomide” (Bristol-Myers Squibb Company, priority 2009, published 2010)

B1: Compound 1: VEGFR2 specific inhibitor represented by SEQ ID NO: 4, 10Fn3-based, modified with a single branched 40 kDa PEG at the C-terminal cysteine (protein)
chain: GEVVAATPTSLLISWRHPHFPTRYYRITYGETGGNSPVQEFTVPLQPPTATISGLKPGVDYTITVYAVTDGRNGRLLSIPISINYRTEIDKPCQ
modifications: branched 40 kDa PEG at C-terminal cysteine

Columns and labels:
[1] = tested on: U87vIIILuc Glioblastoma Cells; assay: Survival of NOD-SCID mice intracranially implanted with U87vIIILuc glioblastoma cells (Example 2); format: in vivo; details: intracranial U87vIIILuc; Compound 1 60 mg/kg IP three times per week; TMZ 34 mg/kg orally once daily for five days; 6 mice per group
From the text: (§1) Tumor Implantation. 9 week-old male NOD-SCID mice (Charles River Laboratories, Wilmington, Mass., USA) were anesthetized by 2% isoflurane. 5×10^4 U87vIIIluc tumor cells were implanted intracranially using the following stereotactic coordinates: 0.5 mm posterior, 2.5 mm lateral, and 3.5 mm intraparenchymal Animal care was kept in strict accordance with the institutional animal care and use committee of Massachusetts General Hospital.
(§2) Drug Administration. After randomization, 24 mice were divided into 4 groups (PBS, Compound 1 only, TMZ only, and Compound 1+TMZ) with 6 mice per group. PBS and Compound 1 (60 mg/kg) were delivered intraperitoneally in 200 ul IP volumes three times per week throughout the study until mice reached established criteria for euthanasia. Temozolomide (TMZ) was delivered orally (34 mg/kg) once daily for five days.
(§3) Results are shown in FIG. 1 (Compound 1=VEGFR2 specific inhibitor represented by SEQ ID NO: 4; Compound 2=TMZ; PBS=phosphate buffered saline (vehicle control)). The Y-axis indicates percent survival within each group over the length of the study Animals were followed for survival and sacrificed at the first sign of morbidity. Mean survival was 19, 29, 32 and 47 days for PBS, Compound 1, TMZ, and Compound 1+TMZ, respectively.

[2] = tested on: U87vIIILuc Glioblastoma Cells; assay: Bioluminescent imaging (BLI) of U87vIIILuc tumor growth (Example 2); format: in vivo, NOD-SCID mice; details: Compound 1 60 mg/kg IP 3x/week, TMZ 34 mg/kg orally QD×5
From the text: as §1, §2
Scanning Mice were anesthetized using 1-2% isoflurane before intraperitoneal injection of D-luciferin salt (150 mg/kg in 200 ul PBS; Caliper Life Sciences, Hopkinton Mass.). Bioluminescent imaging (BLI) was performed in a high sensitivity, cooled CCD camera (IVIS®, Xenogen) at five-minute intervals until peak values were recorded for all mice. BLI imaging was performed on days 6, 13, 20 and 26.
Image Analysis. Living Image® software (Xenogen) was used for image capture and signal quantification. Imaging schedules are described in the treatment groups. […]

[3] = tested on: CD31 (endothelial blood vessel formation marker); assay: Immunohistochemical staining for CD31 on brain tissue sections (microvascular density); format: in vivo, NOD-SCID mice; details: Day 14 IHC analysis; compared to TMZ or PBS groups
Experimental: IHC staining for CD31 was performed on paraffin-embedded mouse brain tissue sections using Rat on mouse HRP-Polymer® (Biocare Medical). Briefly, sections were deparaffinized, rehydrated and treated with peroxidase (PEROXIDAZED 1, Biocare Medical) for 5 min at room temperature. To expose antigens, sections were treated with trypsin (CAREZYME 1®, Biocare Medical) for 10 min at 37° C. Unspecific protein was blocked by using Rodent Block M® (Biocare Medical) for 30 min. Thereafter, sections were incubated with rat monoclonal anti-CD31 (1:50, Biocare Medical) antibody for 2 h at room temperature. Subsequently, sections were incubated with Rat Probe® (Biocare Medical) for 15 min at room temperature, followed by incubation with Rat-Polymer HRP® (Biocare Medical) for 20 min at room temperature.
To visualize antigens in the tissue, DAB chromogen substrate (Biocare Medical) were used for 5 min Finally, sections were lightly counter-stained with Mayer's hematoxylin. For a negative control, the incubation step with primary antibody was omitted.
Immunohistochemical staining against CD31 (endothelial blood vessel formation marker), Ki67 (cell proliferation marker) or cleaved-caspase 3 (cellular apoptosis marker) was performed on paraffin-embedded brain tissue sections. […]

[4] = tested on: U87vIIILuc Glioblastoma Cells; assay: Survival in U87vIIILuc glioma model, triple administration with radiation therapy (Example 3); format: in vivo, NOD-SCID mice; details: radiation insensitive glioblastoma model; compared to RT alone or standard of care (TMZ+RT)
Experimental: Tumor implantation was performed as described above in Example 2.
Drug Administration. After randomization, 32 mice were divided into 4 groups (PBS, Radiation Therapy (RT) only, Compound 2 & RT, and Compound 1+Compound 2 & RT) with 8 mice per group. PBS and Compound 1 (60 mg/kg) were delivered intraperitoneally in 200 ul IP volumes three times per week throughout the study until mice reached established criteria for euthanasia. Compound 2 (TMZ) was delivered orally (34 mg/kg) once daily for five days. Compound 2 and RT treatments were initiated after the third dose of Compound 1.
Radiation Therapy. Mice were shielded in a custom-designed block with an aperture of 0.8 cm. After anesthetic induction (ketamine 118 mg/kg i.p.+xylazine 11.8 mg/kg i.p.), mice were irradiated to a total dose of 10 Gy in three daily fractions. 10 Gy were experimentally determined to be the highest tolerable dose for this model.
as §3, with “FIG. 5” for “FIG. 1”, “2=TMZ; RT=Radiation Therapy;” for “2=TMZ;”, “was 22, 23, 33” for “was 19, 29, 32”, “PBS, Radiation Therapy,” for “PBS,”, “Compound 2 & RT,” for “Compound 1, TMZ,”, “Compound 1+Compound 2 & RT,” for “Compound 1+TMZ,”

Molecule | Mean survival [1] | Day 13 mean BLI values (photons/sec×10^6) increased by, fold [2] | Blood vessel formation by CD31 staining [3] | Survival benefit (in words) [4]
Cn1nnc2c(C(N)=O)ncn2c1=O [TMZ, temozolomide] | 32 days | 6.17×10^1 fold |  | 
B1 | 29 days | 1.79×10^2 fold | strongly reduced blood vessel formation | can enhance survival
